Series [1] addresses T1, LexA (Escherichia coli, UniProt P0A7C2 1-202). Nature of the series: EMSA; concentration as LexA dimer; Hill slope 1.1; 10 mM MgCl2; EMSA: 70 mM Tris-HCl pH 7.5, 2 mM PIPES, 180 mM NaCl, 10 mM MgCl2, 1 ug/ml salmon sperm DNA, 100 ug/ml BSA, 5% glycerol, 0.006% bromophenol blue, 0.1 nM probe. Conditions: protein: recombinant; chain copies: 2; label: 32P (5' on strand 1); blunt. (In EMSA bound probe runs differently from free probe, usually more slowly.)

In series [2] the target is T1, LexA. Nature of the series: EMSA; concentration as LexA dimer; Hill slope 1.2; 10 mM MgCl2; EMSA: 70 mM Tris-HCl pH 7.5, 2 mM PIPES, 180 mM NaCl, 10 mM MgCl2, 1 ug/ml salmon sperm DNA, 100 ug/ml BSA, 5% glycerol, 0.006% bromophenol blue, 0.1 nM probe. The following applies: protein: recombinant; chain copies: 2; label: 32P (5' on strand 1); blunt.

Consider two molecules from paper PMC9210283, “DNA cytosine methylation at the lexA promoter of Escherichia coli is stationary phase specific”.

Usually Kd stands for a measure of binding affinity in units of concentration.

T1 sequence (P0A7C2 whole entry): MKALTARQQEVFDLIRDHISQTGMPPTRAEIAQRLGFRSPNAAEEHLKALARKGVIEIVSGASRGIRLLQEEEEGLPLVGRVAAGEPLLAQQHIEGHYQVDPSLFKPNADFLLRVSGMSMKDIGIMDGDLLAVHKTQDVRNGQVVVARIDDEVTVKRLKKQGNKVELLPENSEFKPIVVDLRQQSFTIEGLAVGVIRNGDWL

B1: lexAop 5mC/5mC (mC16 F / mC3 R) (dsDNA)
DNA 1: AATGCCTGCGGAAACTGTATATACACCCAGGGTCAATTCTGGCT
DNA 2: AGCCAGAATTGACCCTGGGTGTATATACAGTTTCCGCAGGCATT
modifications: 5-methyl-dC at position 28 of strand 1 and position 15 of strand 2
Turning to B1, the Kd in series [1] stood at 14 nM.

B2: lexAop C/C (nonmethylated) (dsDNA)
DNA 1: B1 DNA 1
DNA 2: B1 DNA 2
B2: in series [2], the Kd was 15 nM.
